Source: a protein production outcome set (Wang et al. 2014)

Test: label from the status in PepcDB records
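Also: failed if final PepcDB status was selected cloned or expressed and not failed if soluble or beyond.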

Sequence	protein production
MNSHFLTNDLILEVLSRLPLKSVARFHCVSKRWASMFGSPYFKELFLTRSSAKPRLLFAIVQNGVWRFFSSPRLEKSSSTLVATAEFHMKLSPNNLRIYHDNTPRYFSIGYASGLIYLYGDRYEATPLICNPNTGRYTILPKCYTYRKAFSFFGFDPIDKQYKALSMIYPSGPGHSKILTFGDGDMNWKKIKYRVLHDIYSQGICINGVLYYLGDTSDWDNDHDVTSGNVLVCFDLRSESFTFIGLECGQLINYKGKLAVIFWDDVDDDDVKDDAIDEMHVWVLEDVEKKEWSKYAYTWTEDKLYRSQVSVVGMTASGEIVFSMRKYTSEQPFYVYYFNPERNNLRRVEIQGFEAFTKFGTVYTFVDHVEDLNVYNLKHFKSVHPPSVQPEYDESDSESEEDREIII	failed
MSLKLYGFSVSNYYNMVKLALLEKGLTFEEVTFYGGQAPQALEVSPRGKVPVLETEHGFLSETSVILDYIEQTQGGKALLPADPFGQAKVRELLKEIELYIELPARTCYAESFFGMSVEPLIKEKARADLLAGFATLKRNGRFAPYVAGEQLTLADLMFCFSVDLANAVGKKVLNIDFLADFPQAKALLQLMGENPHMPRILADKEASMPAFMEMIRSGKREGHHHHHH	not failed
MKAIILAGGHSVRFGKPKAFAEVNGETFYSRVIKTLESTNMFNEIIISTNAQLATQFKYPNVVIDDENHNDKGPLAGIYTIMKQHPEEELFFVVSVDTPMITGKAVSTLYQFLVSHLIENHLDVAAFKEDGRFIPTIAFYSPNALGAITKALHSDNYSFKNIYHELSTDYLDVRDVDAPSYWYKNINYQHDLDALIQKLLEHHHHHH	not failed
MASEREQISRKVALIALIANLILMAGKVFFGLVGDSEAVFADGIHSAADVVASIAVLAVIGISNKPPDQDHPFGHGKAEVISEAIVGIILVIVSVYILIEAILSFVKGPSVPQYSALFAALISYVAKEILYRYSIKQGKKWNSKAIIAIAYDHKGDIVASLAAFIGVLLAIIGNSRGWSYLLYADAIASAIVAYLIFKISMELIRPSVGVLMEKSVDPELIEEYKAVIFQCDQVKRIDRIRAREHGHYKLLDVRLSLDHDLTIKQGHDIAREIRNEIKRQFSDVEEVLIHVNPYFEE	failed
MSQSNHPGGKDAGSIPRVLISADRSSSGKTTISMGLMAALVSRGYKVQPFKVALDYIDPSYHTEITGRFCRNLDGYLMDEHGILDVYTHACETGGGADIAIIEGVRGLFEGFESLSDVGSTAQIAKILKCPVVFVINARSITRSAAALIGGYKNFDPDVEIAGVILNNIGGRRHAQKAKEAIEHYTGVPVLGIIPRDPSMQISMRHLGLMPALEGRRRFGDGGFENRLHGIEEIINKGIDVDRFLGIAESAKPLTALENSIFSPAVNENSQKPKIGVALDEAFNFYYRDNIDLLEIAGAEIVYFSPVNDPGLPEVDGLYIGGGYPELFAAELEANETMRKSIKEASAAGMPIYAECGGLMYLTEKISTGVPGKGTYHDASMPESTYSMVGALPGHTIMGQTRVVSYNIGTLARDCPIGKKGNSFKGHEFHHSEILEIPDDAEFAIALTRGTGIRGDRDGLIVNNTIGSYAHLHGVAYRELAGSLVEAARKFRDSRVSSLEHHHHHH	not failed
ERREKKNKIMQAKEDFKKMMEEAKFNPRATFSEFAAKHAKDSRFKAIEKMKDREALFNEFVAAARKKEKE	not failed
VKSKAKKTVDAHSDEYKIRRERNNIAVRKSRDKAKMRNLETQHKVLELTAENERLQKKVEQLSRELSTLRNLFKQLPE	not failed
MVMMSKQLTAQAPVDPIVLGKMGSSYGIRGWLRVFSSTEDAESIFDYQPWFIQKAGQWQQVQLESWKHHNQDMIIKLKGVDDRDAANLLTNCEIVVDSSQLPQLEEGDYYWKDLMGCQVVTTEGYDLGKVVDMMETGSNDVLVIKANLKDAFGIKERLVPFLDGQVIKKVDLTTRSIEVDWDPGFLEHHHHHH	failed
MIRDYKSKLEFLAFYDELTGLPNKNSLIRWLNLKVSQMDCIDTYLIFLEVRDLEKLNVTYGYDLVDELIIHISKRIKDIAGEGNKAFKIGFDRFAIICKSENISDFIERMLSQLLLPYNVNGNLIRVNFNIGAAQIENSNEAAANLMRRCDLALIKAKEEGLNEYVIFKPSIELEHHHHHH	failed
MFTHLDENQQPRMVDISQKVAGDRRAVAQCIVQLPKAIKDYLTGQEIFLKKGPVIQTAIIAGTMAVKKTADLIPFCHTLPIHGCKFDINIVYQKRDYLEIFLQCAVNTNYKTGVEMEALCGVSVAALTIYDMCKSISSEIIIKNTKLIEKTGGKADVSQTPLYGLVLTGGKSRRMGKDKALINYQGQPHGQYIYDLLAKYCEQVFLSARPSQWQGTPLENLPTLVDRGESVGPMSGILTALQSYPGVNWLIIACDLAYINSTMVEKLIAQARQDLVATCYENADQGFPEALCGFYTPLALQLFTKAQNIGLHCPVKILQMADCQLIKPDNLFDIANINSPEDYGQINLEHHHHHH	not failed
MNVDILKQRAKAFDYVFDAIVVTDLQGFIIDWNKGSETLYGYSKEQAIGQPVNMLHVPGDTEHITSEVISAVENQGKWTGEIRMLHKDGHIGWIESMCVPIYGENYQMVGALGINRDITKRKKELEHHHHHH	not failed
MSLTNDERILSWNETPSKPRYTPPPGAIDAHCHVFGPMAQFPFSPKAKYLPRDAGPDMLFALRDHLGFARNVIVQASCHGTDNAATLDAIARAQGKARGIAVVDPAIDEAELAALHEGGMRGIRFNFLKRLVDDAPKDKFLEVAGRLPAGWHVVIYFEADILEELRPFMDAIPVPIVIDHMGRPDVRQGPDGADMKAFRRLLDSREDIWFKATCPDRLDPAGPPWDDFARSVAPLVADYADRVIWGTDWPHPNMQDAIPDDGLVVDMIPRIAPTPELQHKMLVTNPMRLYWSEEMEGHHHHHH	not failed
MTAAPAALHDRALHLLQTIWGYPAFRGVQGEIVQQVAEGGNALVLMPTGGGKSLCYQLPSLLRPGTGIVVSPLIALMKDQVDTLRQNGVRAAFLNSTLLPHEAREVEDALLRGDLDLLYVAPERLLMPRTLDLLERAPVALFAIDEAHCVSQWGHDFRPEYQQLSVLAERFPELPRVALTATADERTRADIKSVLRLEDAPQFVSSFDRPNIQYRVGLKDSPKTQLLHFIREEHPGDAGIVYCLSRKSVEETAKWLQAQGIDALAYHAGLSSTERNNVQERFLNEEGVIVCATVAFGMGIDKPNVRFVAHLDLPKSMEGYYQETGRAGRDGLPSTAWMVYGLSDVVNVRRMLAQSDAPEEVKRVEASKLDALLTYCEAATCRRQVLLHYFGEELSEPCGNCDVCLNPPRVRDLTREAQMALSATIRTGNRFGAAHLTDVLLGRETDKVLAQGHHQLPTFGVGKEHDEKLWRSVLRQLVSLGYLSADDHFGLRATGKSRGILKEGQKLLLREDTLLPGAGKSKRDRASASRAALDSHDAPLFEALRAWRLQKAKELSLPPYTIFHDATLKTIAELRPGSHATLGTVSGVGGRKLAAYGDEVLQVVRDSSGGGQAGPENLLDSPAFDPAVRGARNNNAVLDVLGSKGELQPQPKPAHPGVLGALRELRRTLAAEQGRSLSWVFPEATIDELARKLPTRSEELKDVFGLGGQRIQAFGDRILATIRAELTGGAPSPAPSAPAALFDEAVPPAPNADLSEALRELRRELMKETGYSAFVVFTNATLEALAARQPRTLAELAEVPGLGEKRIEAYGERILDAINTVLDG	failed
MSQLEIRDLWASIDGETILKGVNLVVPKGEVHALMGPNGAGKSTLGKILAGDPEYTVERGEILLDGENILELSPDERARKGLFLAFQYPVEVPGVTIANFLRLALQAKLGREVGVAEFWTKVKKALELLDWDESYLSRYLNEGFSGGEKKRNEILQLLVLEPTYAVLDETDSGLDIDALKVVARGVNAMRGPNFGALVITHYQRILNYIQPDKVHVMMDGRVVATGGPELALELEAKGYEWLKEKVKEGA	not failed
SGHPPLEFSDCYLDSPDFRERLKCYEQELERTNKFIKDVIKDGNALISAMRNYSSAVQKFSQTLQSFQFDFIGDTLTDDEINIAESFKEFAELLNEVENERMMMVHNASDLLIKPLENFRKEQIGFTKERKKKFEKDGERFYSLLDRHLHLSSKKKESQLQEADLQVDKERHNFFESSLDYVYQIQEVQESKKFNIVEPVLAFLHSLFISNSLTVELTQDFLPYKQQLQLSLQNTRNHFSSTREEMEELKKRMKEAPQTCKLPGQPTIEGYLYTQEKCVWGHRGIHWVSISQELLPLVGCEFWAPLLFIDP	not failed
